{
  "source": "patent US20170360949A1",
  "about": "(TIANJIN INSTITUTE OF INDUSTRIAL BIOTECHNOLOGY CHINESE …, published 2017)",
  "key": {"[1]": {"biological_target": "T1, Z1Z2 (two Ig domains at the N terminus of the titin molecule) (human)", "T1 construct": "also called polypeptide A", "T1 chain": "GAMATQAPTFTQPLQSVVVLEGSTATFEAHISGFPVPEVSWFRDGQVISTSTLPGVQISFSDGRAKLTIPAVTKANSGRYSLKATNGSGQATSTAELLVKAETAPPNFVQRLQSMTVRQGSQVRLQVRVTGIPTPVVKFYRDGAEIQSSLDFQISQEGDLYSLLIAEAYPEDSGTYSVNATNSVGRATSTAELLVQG", "experiment": "complex formation by mixing in urea and dialysis, then co-purification"}, "GLZ": {"biological_target": "T2, GLZ (human)", "T2 construct": "Two GLZ chains stand in the GLZ/TeN complex; End residue 260 from claim 16; also called GLP-1(8G) attached to the N terminus of Z1Z2", "T2 chain": "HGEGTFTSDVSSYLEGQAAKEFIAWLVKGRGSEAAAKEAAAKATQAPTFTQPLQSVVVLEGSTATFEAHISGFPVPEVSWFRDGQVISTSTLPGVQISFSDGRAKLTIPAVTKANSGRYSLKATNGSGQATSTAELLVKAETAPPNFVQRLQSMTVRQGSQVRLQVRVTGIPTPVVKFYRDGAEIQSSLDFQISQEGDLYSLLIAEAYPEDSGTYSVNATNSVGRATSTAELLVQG", "experiment": "SDS-PAGE and Native-PAGE of the purified complex"}, "ZSST": {"biological_target": "T3, ZSST (human)", "T3 construct": "Two ZSST chains stand in the ZSST/TeN complex; End residue 237 from claim 18; also called SST inserted into a loop of the Z1Z2 molecule", "T3 chain": "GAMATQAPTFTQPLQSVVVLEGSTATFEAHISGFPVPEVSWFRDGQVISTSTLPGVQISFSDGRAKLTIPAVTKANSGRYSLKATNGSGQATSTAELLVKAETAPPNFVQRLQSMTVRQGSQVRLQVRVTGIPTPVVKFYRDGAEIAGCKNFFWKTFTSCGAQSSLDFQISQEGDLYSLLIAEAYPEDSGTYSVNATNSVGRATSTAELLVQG", "experiment": "SDS-PAGE and Native-PAGE of the purified complex"}, "[2]": {"biological_target": "T1, Z1Z2 (two Ig domains at the N terminus …)", "experiment": "SDS-PAGE and Native-PAGE of the purified complex"}},
  "data": [
    {"binder": "GLTe (other, TEV site printed as between positions 25 and 26, in conflict with GLP-1 at 25-55; claim 15 gives 25-161; also called GLP-1 (7-37) attached via (GGGGS)3 to the N terminus of TeN) HAEGTFTSDVSSYLEGQAAKEFIAWLVKGRGGGGGSGGGGSGGGGSAMATSELSSEVSEENSERREAFWAEWKDLTLSTRPEEGSSLHEEDTQRHETYHQQGQSQVLVQRSPWLMMRMGILGRGLQEYQLPYQRVLP", "values": [
      {"measurement": "binding result", "setting": "[1]", "value": "binds"}
    ]},
    {"binder": "TeN (N terminus of Telethonin, Cys mutated to Ser) (other, also called polypeptide B) GAMATSELSSEVSEENSERREAFWAEWKDLTLSTRPEEGSSLHEEDTQRHETYHQQGQSQVLVQRSPWLMMRMGILGRGLQEYQLPYQRVLP", "values": [
      {"measurement": "binding result", "setting": "GLZ", "value": "binds"},
      {"measurement": "binding result", "setting": "ZSST", "value": "binds"}
    ]},
    {"binder": "SSTe (other, claim 17 gives 25-132; also called SST inserted into the Loop (LT1) of a TeN mutant) GAMATSELSSEVSEENSEAGCKNFFWKTFTSCGGRREAFWAEWKDLTLSTRPEEGSSLHEEDTQRHETYHQQGQSQVLVQRSPWLMMRMGILGRGLQEYQLPYQRVLP", "values": [
      {"measurement": "binding result", "setting": "[2]", "value": "binds"}
    ]}
  ]
}
